# Test results published in patent US20210070875A1 (SHANGHAI PHARMAEXPLORER, published 2021).
# Residue numbers refer to the chain shown, from its start.
# T1: human C5aR (human, UniProt P21730 1-350)
# T1 chain: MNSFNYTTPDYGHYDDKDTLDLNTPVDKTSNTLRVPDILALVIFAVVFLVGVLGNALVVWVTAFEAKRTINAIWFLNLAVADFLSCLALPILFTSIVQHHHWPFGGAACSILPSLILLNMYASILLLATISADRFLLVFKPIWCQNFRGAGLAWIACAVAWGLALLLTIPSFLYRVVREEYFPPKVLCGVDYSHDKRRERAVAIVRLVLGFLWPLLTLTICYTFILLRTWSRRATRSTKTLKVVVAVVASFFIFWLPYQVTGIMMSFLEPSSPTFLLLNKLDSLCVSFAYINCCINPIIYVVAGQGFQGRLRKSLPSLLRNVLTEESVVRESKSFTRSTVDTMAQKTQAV
# B1: 42B5G7D1 (antibody, V domains shown)
# VH: QVQLQQSGPELVKPGASVKISCKASGYVFSNSWMNWVKQRPGKGLEWIGRIDPGDGDTKYNGKFKGKATLTADKSSSTAYMQLSSLTSEDSAVYFCVRFYYGSNYVGYYFDYWGQGTTLTVSS
# VL: DVLMTQTPLSLPVSLGDQASISCRSSQSIVQSNGNTYLEWYLQKPGQSPKLLIYKVSNRFSGVPDRFSGSGSGTDFTLKISRVEAEDLGVYYCFQGSLVPPTFGGGTKLEIK
# B2: 2A12B2B2 (antibody, V domains shown)
# VH: QVQLQQPGADLVKPGASVKMSCKASGYILTTYWITWVKQRPGQGLEWIGDIHPGSGSTKYNEKFKSKATLTVDTSSSTAYMQLTRLSSEDSAVYYCARRDYWGQGTTLTVSS
# VL: DIQMTQTTSSLSASLGDKVTISCRASQDISNYLSWYQQKPDGTVKLLIYWISRLHSGVPSRFSGSGSGTDFSLTISNLEQEDIATYFCQQGNSLPPTFGGGTKLEVK
# B3: 43E8F5B6 (antibody, V domains shown)
# VH: EVQLQQSGPELVKPGASVKISCKASGYTFTDYYMSWMKQSHGKSLEWIGDINPNNGDNIYNQKFKGKATLTVDRSSSTAYMDLRSLTSEDSAVYYCARWYYYVSSFSYWYFDVWGTGTTVTVSS
# VL: EIVLTQSPTTMAASPGEKITITCSATSSINSNYLHWYQQKPGFSPKLLIYRTSNLASGVPARFSGSGSGTSYSLTIGTMEAEDVATYYCQQGRTIPRTFGSGTKLEIK
# B4: 5F8E2C11 (antibody, V domains shown)
# VH: QVQLRQSGPGLVQPSQSLSITCTVSGFSLTSYGVHWVRQSPGKGLEWLGVIWSGGSTDYNAAFISRLSISKDYSKSQIFLTMNSLQTDDTAIYYCARNSRLGNCFDYWGQGTTLTVSS
# VL: DIVMSQSPSSLAVSAGEKVTMSCKSSQSLLNSRTRKNYLAWYQQKPGQSPKLLIYWASTRESGVPDRFTGSGSGTDFTLTISSVQAEDLAVYYCKQSYNLPAFGGGTKLEIK
# B5: 9D5A12G7 (antibody, V domains shown)
# VH: QVQLKQSGPGLVQPSQSLSITCTVSGFSLTSYGVHWVRQSPGKGLEWLGVIWSGGSTDYNAAFISRLSISKDNSKSQVFFKMNSLQADDTAIYYCARNGLLGNAMDYWGQGTSVTVSS
# VL: B4 VL with N31S, A86T, P101L, A102T, G105A, K108T, I111L
# B6: 46H2A11C7 (antibody, V domains shown)
# VH: QVQLKQSGAELVKPGASVKISCRASGYTFTDYFINWVKQRPGQGLEWIGKIGPGSGNIYQNEKFKDKATLTTDTSSSTAYMQLSSLTSEDSAVYFCARWGIQRGWGQGTTLTVSS
# VL: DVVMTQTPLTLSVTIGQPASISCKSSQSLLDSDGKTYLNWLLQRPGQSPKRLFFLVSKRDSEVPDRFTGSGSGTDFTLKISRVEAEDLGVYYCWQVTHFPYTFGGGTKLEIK
# B7: 8B5D1A9 (antibody, V domains shown)
# VH: QVQLKQSGAELVKPGASVKISCKTSGYIFTDYYINWMKQRPGQGLEWIGKIGPGSGTTFYNEKFKGKATLTADKSSTTLYMQLSSLTAEDSAVYFCTRRGYYSSSYFYWGQGTTLTVSS
# VL: DIVMTQSPSSLSVSAGEKVIMSCKSSQSLLNSERQKNYLAWYQQKPGQSPKLLIYGASTRESGVPDRFTGSGSGTDFTLTISSVQAEDLAVYYCLNDHSYPLTFGAGTKLELK
# Target: T1, human C5aR
# Assay: cell-based or functional assay
# Further: test concentration or dose not given here.
Binder,"C5a-induced human neutrophil migration, Celltiter-Glo fluorescence intensity value, Parallel sample 1 [fluorescence intensity]","C5a-induced human neutrophil migration, Celltiter-Glo fluorescence intensity value, Parallel sample 2 [fluorescence intensity]","C5a-induced human neutrophil migration, Celltiter-Glo fluorescence intensity value, Parallel sample 3 [fluorescence intensity]","C5a-induced human neutrophil migration, Celltiter-Glo fluorescence intensity value, Parallel sample 4 [fluorescence intensity]"
B1,1200,1480,298,335
B2,670,597,233,204
B3,844,808,706,757
B4,575,429,400,313
B5,175,211,575,611
B6,1460,1510,1930,2040
B7,655,713,706,750
